One block for each substance: values may come before it.
Experiments:
GPR103 = settings: cited from earlier work
Text: GPR103 is a Gi/o- and Gq-coupled GPCR expressed in the adrenal gland and various regions of the brain such as the hypothalamus, which plays a crucial role in the regulation of energy metabolism and appetite control. […] In this study, we focused on the structural analysis complexed with Gq. To facilitate expression and purification, we truncated the C-terminal residues after G366 of human GPR103. […] (Supplementary Fig. 1a–d and Supplementary Table 1). […] The heptapeptide is conserved from fish to mammals, except for S23 (Supplementary Fig. 6a), consistent with the fact that the S23 side chain poorly interacts with the receptor. The receptor residues interacting with the heptapeptide are highly conserved among the homologs (Supplementary Fig. 6b, c). Accordingly, this observed heptapeptide-TMD interaction plays a key role in evolutionarily conserved GPR103 activation.

[1] = cited from earlier work
Text: GPR103 is a Gi/o- and Gq-coupled GPCR expressed in the adrenal gland and various regions of the brain such as the hypothalamus, which plays a crucial role in the regulation of energy metabolism and appetite control. QRFP and GPR103 are implicated in a variety of physiological functions ranging from the modulation of feeding behavior to the regulation of energy homeostasis, cardiovascular function, and bone formation. ... || In the current study, we have not only elucidated the architecture of the receptor but also shed light on the structure of QRFP itself, potentially paving the way for the modulation of QRFP-neurons (Q-neurons)[46]. […] The QRFP-induced hibernation-like state (QIH) provides an unusual model to study metabolic suppression for therapeutic purposes, as well as artificial hibernation. QIH through pharmacogenetics[47] or optogenetics[48] is achievable in murine models, ...

[2] = target: GPR103 alanine mutant of F25^N-term (human) (UniProt Q96P65)
[3] = target: GPR103 alanine mutant of Y29^N-term (human) (UniProt Q96P65)
[4] = target: GPR103 alanine mutant of F11^N-term (human) (UniProt Q96P65)
GPR103 C98^2.57A (human) = GPR103 C98^2.57A (human) (UniProt Q96P65)
[5] = target: GPR103 Q125^3.32 mutant (human) (UniProt Q96P65)
[6] = target: GPR103 T102^2.61 mutant (human) (UniProt Q96P65)
[7] = target: GPR103 E203^ECL2A (human) (UniProt Q96P65)
[8] = target: GPR103 E297^6.59A (human) (UniProt Q96P65)
[9] = target: GPR103 Q318^7.39A (human) (UniProt Q96P65)
GPR103 Q318^7.39A (human), sequence (Q96P65 whole entry Q318A): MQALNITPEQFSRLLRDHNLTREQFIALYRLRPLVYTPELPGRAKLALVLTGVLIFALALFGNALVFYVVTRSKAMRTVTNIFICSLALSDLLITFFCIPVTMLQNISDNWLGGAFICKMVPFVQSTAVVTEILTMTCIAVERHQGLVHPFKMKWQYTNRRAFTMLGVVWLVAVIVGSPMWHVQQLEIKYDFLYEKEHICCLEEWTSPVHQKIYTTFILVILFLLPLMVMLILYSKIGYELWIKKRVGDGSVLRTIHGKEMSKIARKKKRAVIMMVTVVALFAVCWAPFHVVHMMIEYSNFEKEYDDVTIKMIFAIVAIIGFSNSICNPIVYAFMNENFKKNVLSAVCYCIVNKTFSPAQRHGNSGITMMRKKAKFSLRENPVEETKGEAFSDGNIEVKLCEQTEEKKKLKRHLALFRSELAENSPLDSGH

GPR103 T102^2.61 mutant (human), sequence (Q96P65 whole entry, change not shown): as the sequence (Q96P65 whole entry Q318A) above, with A318Q counted along it
GPR103 Q125^3.32 mutant (human), sequence (Q96P65 whole entry, change not shown): as the sequence (Q96P65 whole entry Q318A) above, with A318Q counted along it
GPR103 alanine mutant of F25^N-term (human), sequence (Q96P65 other isoform, or with tags, fused parts or gaps mutant): as the sequence (Q96P65 whole entry Q318A) above, with F25A, A318Q counted along it
GPR103 C98^2.57A (human), sequence (Q96P65 whole entry C98A): as the sequence (Q96P65 whole entry Q318A) above, with C98A, A318Q counted along it
GPR103 alanine mutant of F11^N-term (human), sequence (Q96P65 other isoform, or with tags, fused parts or gaps mutant): as the sequence (Q96P65 whole entry Q318A) above, with F11A, A318Q counted along it
GPR103 alanine mutant of Y29^N-term (human), sequence (Q96P65 other isoform, or with tags, fused parts or gaps mutant): as the sequence (Q96P65 whole entry Q318A) above, with Y29A, A318Q counted along it
GPR103 E297^6.59A (human), sequence (Q96P65 whole entry E297A): as the sequence (Q96P65 whole entry Q318A) above, with E297A, A318Q counted along it
GPR103 E203^ECL2A (human), sequence (Q96P65 whole entry E203A): as the sequence (Q96P65 whole entry Q318A) above, with E203A, A318Q counted along it

Substance: EDEGSEATGFLPAAGEKTSGPLGNLAEELNGYSRKKGGFSFRF [QRFP43, pyroglutamylated RF-amide peptide, 43-amino acid RF-amide peptide with a pyroglutamylated N-terminus]
- activity for GPR103 (in words) (GPR103; ref [5]–[7]): specific activity for GPR103
- food intake and fat mass (in words) ([1]; QRFP administration, ref [11]): increased food intake and fat mass
- glucose-induced insulin release (in words) ([1]; QRFP administration, ref [11]): reducing glucose-induced insulin release
- osteopenia and nociception (in words) ([1]; QRFP administration, ref [11]): may also cause osteopenia and facilitate nociception
- orexigenic activity (in words) ([1]; ref [5]–[7]): orexigenic activity
- hypothermia and metabolism (in words) ([1]; ref [46]): capable of inducing an extended state of hypothermia and reduced metabolism

Substance: GGFSFRF [C-terminal heptapeptide, C-terminal heptapeptide of QRFP26 (GGFSFRF)]
- GPR103 activation (in words) (GPR103; ref [27],[28]): sufficient to activate GPR103
- affinity (in words) (GPR103; ref [27],[28]): reduced affinity

- QRFP26-induced activation of GPR103, TGFα shedding assay (reduction of potency against wild type) [2]: 10 fold
- QRFP26-induced activation of GPR103, TGFα shedding assay (reduction of potency against wild type) [3]: 10 fold
- QRFP26-induced activation of GPR103, TGFα shedding assay (reduction of potency against wild type) [4]: 10 fold
- QRFP26-induced activation of GPR103, TGFα shedding assay (reduction of potency against wild type) (GPR103 C98^2.57A (human)): 3 fold
- QRFP26-induced activation of GPR103, TGFα shedding assay (reduction of potency against wild type) [5]: > 3 fold
- QRFP26-induced activation of GPR103, TGFα shedding assay (reduction of potency against wild type) [6]: > 3 fold
- QRFP26-induced activation of GPR103, TGFα shedding assay (reduction of potency against wild type) [7]: 3 fold
- QRFP26-induced activation of GPR103, TGFα shedding assay (reduction of potency against wild type) [8]: 10 fold
- QRFP26-induced activation of GPR103, TGFα shedding assay (reduction of potency against wild type) [9]: > 3 fold
Substance: QRFP26 (from UniProt P83859 91-136) (peptide)

Reference: article PMC11187126, “Structure and dynamics of the pyroglutamylated RF-amide peptide QRFP receptor GPR103” (Nature Communications, 2024)
